Experimental findings from patent US20200173986A1 (HUGEL, published 2020) are described below.

Positions count from the first letter of the chain named.

Experiment [1] deals with T1, recombinant GST-SNAP25197 (UniProt P60880 1-197).
T1 construct: not shown: glutathione S-transferase (GST) tag
Description: direct ELISA; signal on GST-SNAP25197 against GST-SNAP25FL as reference. A general note: ELISA stands for enzyme-linked immunosorbent assay.

In experiment [2] the target is T2, recombinant GST-SNAP25FL (UniProt P60880 1-206).
T2 construct: also called GST-SANP25FL; not shown: glutathione S-transferase (GST) tag
Description: BLI (Octet Red96); IgG on AMC biosensor, GST-SNAP25FL as analyte; KD from a tentative koff limit. For orientation: BLI is a label-free optical method that tracks binding on a fibre tip over time.

Experiment [3] deals with T1, recombinant GST-SNAP25197. Description: BLI (Octet Red96); anti-GST biosensor dipped in 250 nM GST-SNAP25197, IgG as analyte.
The target in experiment [4] is T1, recombinant GST-SNAP25197. Kind of experiment: BLI (Octet Red96); IgG on AMC biosensor, GST-SNAP25197 as analyte; koff is the instrument's lowest limit, tentatively given.
In experiment [5] the target is T1, recombinant GST-SNAP25197. Description: BLI (Octet Red96); anti-GST biosensor dipped in 125 nM GST-SNAP25197, IgG as analyte.

T1 sequence (P60880 1-197): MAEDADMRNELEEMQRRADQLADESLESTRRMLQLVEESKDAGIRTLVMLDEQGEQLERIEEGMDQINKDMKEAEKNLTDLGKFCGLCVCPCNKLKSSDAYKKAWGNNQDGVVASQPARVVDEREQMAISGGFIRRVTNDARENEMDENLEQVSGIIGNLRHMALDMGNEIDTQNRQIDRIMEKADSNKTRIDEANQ
T2 sequence (P60880 whole entry): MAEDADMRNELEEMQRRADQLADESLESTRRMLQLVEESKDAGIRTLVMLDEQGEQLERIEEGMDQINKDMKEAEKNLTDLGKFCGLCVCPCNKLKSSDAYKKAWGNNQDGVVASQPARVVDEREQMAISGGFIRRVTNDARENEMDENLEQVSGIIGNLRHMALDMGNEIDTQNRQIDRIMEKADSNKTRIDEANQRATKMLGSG

B1: D6 IgG (antibody, V domains shown)
VH: EVQLQQSGPELVKPGASVKISCKASGYTFTDYNMHWVKQSHGKSLEWIGYIYPYNGDTGYNQKFKSKATLTVDNSSSTAYMELRSLTSEDSAVYYCVRSGDYWGQGTTLTVSS
VL: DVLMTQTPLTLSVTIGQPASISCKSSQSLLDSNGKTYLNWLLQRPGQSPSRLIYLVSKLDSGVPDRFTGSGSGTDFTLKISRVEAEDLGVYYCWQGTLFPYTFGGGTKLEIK
B1: the “Ratio197/206 (A450 with SNAP25197 to A450 with SNAP25FL)” value in experiment [1] came to 0.02 ratio.

B2: B4 IgG (antibody, V domains shown)
VH: EVKLVESGGGLVKPGGSLKLSCAASGFTFSNYGMSWVRQTPEKRLEWVATISSGGSYTYYPDSVKGRFTISRDNAKNTLYLQMSSLRSEDTAMYYCARHEGGGNPYFDYWGQGTTLTVSS
VL: DVLMTQTPLSLPVSLGDQASISCRSSQSLVHSNGNTYLHWYLQKPGQSPKLLIYKVSNRFSGVPDRFSGSGSGTDFTLKISRVEAEDLGVYFCSQNTLVPWTFGGGTKLEIK
notes: also called B4 IgG1; clone 4
As to B2, the Kd – broadly, the constant that tells how readily two partners part at equilibrium – in experiment [2] was not above 0.00105 nM. The “Ratio197/206 (A450 with SNAP25197 to A450 with SNAP25FL)” value in experiment [1] amounted to 0.83 ratio.

B3: D3 IgG (antibody, V domains shown)
VH: EVQLEESGGGLVQPGGSLKLSCAASGFTFSNYGMSWVRQTPDKRLELVATINSNGGTTYYPDSVKGRFTISRDNAKNTLYLQMSSLKSEDSAMYYCARDRDAMDYWGQGTSVTVSS
VL: B2 VL with L29I, H31N, N33H, H39E, F92Y, S94F, N96G, T97S, L98H
Turning to B3, the “Ratio197/206 (A450 with SNAP25197 to A450 with SNAP25FL)” value in experiment [1] is 12.9 ratio.

B4: D2 IgG (antibody, V domains shown)
VH: DVKLQESGPGLVKPSQSLSLTCSVTGYSITSGYYWNWIRQFPGNKLEWMGYIRYDGSNNYNPSLKNRISITRDTSKNQFFLKLNSVTTEDTASYYCARDRDSSYYFDYWGQGTALTVSS
VL: DIVMTQSSSYLSVSLGGRVTITCKASDHINNWLAWYQQKPGNAPRLLISDTTSLETGVPSRFSGSGSGKDYTLSITSLQTEDVATYYCQQYWSAPPTFGGGTKLEIK
As for B4, the “Ratio197/206 (A450 with SNAP25197 to A450 with SNAP25FL)” value in experiment [1] turned out to be 0.03 ratio.

B5: B23 IgG (antibody, V domains shown)
VH: EVQLQQSGAELVRPGASVKLSCTASGINIKDYYMHWMKQRPEQDLEWIGWIDPGNGDAEYAPKFQGKATMTADTSSNTAYLQLSSLTSEDTAVYYCNEIAYWGQGTLVTVSA
VL: not shown
notes: also called B23 IgG1
As for B5, the Kd in experiment [2] was not above 0.00104 nM. In addition, the “Ratio197/206 (A450 with SNAP25197 to A450 with SNAP25FL)” value in experiment [1] was determined as 0.92 ratio.

B6: C7 IgG (antibody, V domains shown)
VH: QVQLVETGGGLVQPKGSLKLSCAASGFTFNTNAMNWVRQAPGKGLEWVARIRSKSNNYATYYADSVKDRFTISRDDSQSLLYLQMNNLKTEDTAMYYCVYGRSYGGLSYWGQGTLVTVSA
VL: DIVMTQSPASLAVSLGQRATISCRASKSVSSSGYSYMHWYQQKPGQPPKLLIYLASNLESGVPARFSGSGSGTDFTLNIHPVEEEDAATYYCQHSRELPLTFGAGTKLELK
notes: also called C7 IgG2a
Turning to B6, the Kd amounted to 4.41 nM in experiment [3] and 19.3 nM in experiment [5]. The koff (in general, the first-order rate constant of dissociation) is 0.00122 s⁻¹ in experiment [3], not above 1e-07 s⁻¹ in experiment [4] and 0.00494 s⁻¹ in experiment [5]. In addition, the “Ratio197/206 (A450 with SNAP25197 to A450 with SNAP25FL)” value in experiment [1] was 1040 ratio.

B7: C24 IgG (antibody, V domains shown)
VH: EVKLVESGGGLVQPKGSLKLSCAASGYTFNTYAMNWVRQAPGKGLEWVARIRSKSNNYTTYYADSVKDRFTISRDDSQSMLYLQINNLKTEDTAMYYCVGQILYYYVGSPAWFAYWGQGTLVTVSA
VL: B6 VL with S31T, Y53F, L100W, A104G, L110I
On to B7, for which the koff in experiment [4] was not above 1e-07 s⁻¹. The “Ratio197/206 (A450 with SNAP25197 to A450 with SNAP25FL)” value in experiment [1] is 973 ratio.

B8: C16 IgG (antibody, V domains shown)
VH: EVQLQQSGAELARPGASVQMSCKAFGYTFTNYTMHWVRQRPGQGLEWIGFINPSSDYTNYNQKFKDKATLSADKSSSTAYMQLSSLTSEDSAVYYCARRIFYNGRTYAAMDYWGQGTSVTVSS
VL: B6 VL
notes: also called C16 IgG1
Take B8: in experiment [1], the “Ratio197/206 (A450 with SNAP25197 to A450 with SNAP25FL)” value worked out at 996 ratio.

B9: C4 IgG (antibody, V domains shown)
VH: DVKLQESGPGLVKPSQSLSLTCTVTGYSITSDYAWNWIRQFPGNKLEWMGYISYSVGTRYNPSLKSRISITRDTSKNQFFLLLKSVTNEDTATYFCARKGEYGFAYWGQGTLVTVSA
VL: B6 VL with S31T
As to B9, the koff in experiment [4] was not above 1e-07 s⁻¹. Moreover, in experiment [1], the “Ratio197/206 (A450 with SNAP25197 to A450 with SNAP25FL)” value was determined as 919 ratio.

B10: C14 IgG (antibody, V domains shown)
VH: B6 VH with Q1E, Q3K, T7S, N56D, Q78P, L80M, S108G
VL: B6 VL with M4L, S31T, M37V
Regarding B10, the “Ratio197/206 (A450 with SNAP25197 to A450 with SNAP25FL)” value in experiment [1] came to 953 ratio.
